Data as given in patent US20240228562A1 (Pieris, published 2024).
Numbering of substitutions follows the chain as printed.

Key:
[1] = target: T1, recombinant human CTGF protein (R&D Systems, SEQ ID NO: 79) (human, UniProt P29279 27-349); assay: ELISA, coated human CTGF
T1 construct: Bought; also called human CTGF/CNN2; huCTGF
T1 sequence: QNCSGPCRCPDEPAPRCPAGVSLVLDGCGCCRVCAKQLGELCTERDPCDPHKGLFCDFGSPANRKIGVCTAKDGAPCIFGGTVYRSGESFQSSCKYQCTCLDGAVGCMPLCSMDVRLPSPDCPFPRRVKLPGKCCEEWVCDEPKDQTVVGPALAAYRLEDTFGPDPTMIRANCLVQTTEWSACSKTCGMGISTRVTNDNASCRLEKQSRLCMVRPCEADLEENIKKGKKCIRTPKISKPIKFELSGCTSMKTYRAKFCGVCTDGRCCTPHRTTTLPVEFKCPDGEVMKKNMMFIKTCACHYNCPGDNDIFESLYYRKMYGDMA
Experimental: Binding of fusion proteins was tested by an ELISA assay. In detail, a 384-well plate suitable for fluorescence measurements (Greiner FLUOTRAC™ 600, black flat bottom, high-binding) was coated with 20 μl of human CTGF (R&D Systems) at a concentration of 1 μg/ml in PBS over night at 4° C. After washing with PBS with 0.05% Tween 20, wells were blocked with 100 μl blocking buffer containing 0.1% Tween 20 and 2% BSA (PBS-T/BSA) for 1 h at room temperature. 20 μl of serially diluted muteins were incubated in PBS-T/BSA for 1 h at room temperature (RT).
The residual supernatants were discarded and 20 μl HRP-labeled anti-NGAL or anti-His-Tag antibody was added at a predetermined optimal concentration in PBS-T/BSA and incubated for 1 h at RT. After washing, 20 μl fluorogenic HRP substrate (QuantaBlu, Thermo) was added to each well, and the reaction was allowed to proceed for 2 to 60 minutes. The fluorescence intensity of every well on the plate was read using a fluorescence microplate reader (Tecan). Curve fitting was performed using GraphPad Prism 7 or 8 software.

[2] = target: T1, recombinant human CTGF protein (R&D …); assay: HTRF, 1 nM biotinylated human CTGF
Experimental: Binding of some fusion proteins was tested by a Homogeneous Time Resolved Fluorescence (HTRF assay). In detail, 1 nM of biotinylated human CTGF (R&D Systems) was incubated for 1 h with a titration of some lipocalins starting at 5 nM in 384 Flat Bottom White Polystyrol microtiter plate (Greiner). Samples were diluted in PBS containing 0.1% Tween 20 and 2% BSA. As donor, Streptavidin-Terbium at a concentration of 0,006 μg/mL was used, the acceptor was 0.2 μg/mL anti-His-d2 (both CisBio). After another 1 h of incubation, the fluorescence intensity of the donor and acceptor on the plate was read using a fluorescence microplate reader M1000 (Tecan) with the standard settings recommended by CisBio. The calculated ratio of signals was used for the curve fitting performed in GraphPad Prism 7 software.

B1: fusion protein of SEQ ID NO: 65 (designed binder)
chain: QDSTSDLIPAPPLSKVPLQQNFQDNQFHGKWYVVGRAGNNRLREDKDPPKMWATIYELKEDKSYDVTHVHFMTKKCRYIIDTFVPGSQPGEFTLGAIKSGPGMTSPLVRIVSTNYNQHAMVFFKWVNQNREWFTITLYGRTKELTSELKENFIRFSKSLGLPENHIVFPVPIDQCIDGGGGGSGGGGSGGGGSQDSTSDLIPAPPLSKVPLQQNFQDNQFHGKWYVVGLAGNKILRIDKQPAKMFATIYELKEDKSYDVTSVRFEARSCSYTIKTFVPGSQPGEFTAGNIKSAPGQTSTLVRVVSTNYNQHAMVFFKHVSQNRETFVITLYGRTKELTSELKENFIRFSKSLGLPENHIVFPVPIDQCIDG
EC50 [1]: 0.61 nM

B2: fusion protein of SEQ ID NO: 64 (designed binder)
chain: QDSTSDLIPAPPLSKVPLQQNFQDNQFQGKWYVVGLAGNYRLREDKDPSKMGATIYELKEDKSYDVTQVQFDDKKCLYVIETFVPGSQPGEFTLGAIKSYPGLTSQLVRVVSTNYNQHAMVFVKKVWPNLEYFQIVLYGRTKELTSELKENFIRFSKSLGLPENHIVFPVPIDQCIDGGGGGSGGGGSGGGGSQDSTSDLIPAPPLSKVPLQQNFQDNQFQGKWYVVGLAGNAILREDKQPAKMFATIYELKEDKSYDVTSVRFEAKSCKYTIKTFVPGSQPGEFTAGYIKSAPGQTSTLVRVVSTNYNQHAMVFFKHVTQNREIFVITLYGRTKELTSELKENFIRFSKSLGLPENHIVFPVPIDQCIDG
notes: not shown: C-terminal His-tag
EC50 [2]: 0.58 nM

B3: fusion protein of SEQ ID NO: 66 (designed binder)
chain: QDSTSDLIPAPPLSKVPLQQNFQDNQFHGKWYVVGLAGNKILRIDKQPAKMFATIYELKEDKSYDVTSVRFEARSCSYTIKTFVPGSQPGEFTAGNIKSAPGQTSTLVRVVSTNYNQHAMVFFKHVSQNRETFVITLYGRTKELTSELKENFIRFSKSLGLPENHIVFPVPIDQCIDGGGGGSGGGGSGGGGSQDSTSDLIPAPPLSKVPLQQNFQDNQFHGKWYVVGRAGNNRLREDKDPPKMWATIYELKEDKSYDVTHVHFMTKKCRYIIDTFVPGSQPGEFTLGAIKSGPGMTSPLVRIVSTNYNQHAMVFFKWVNQNREWFTITLYGRTKELTSELKENFIRFSKSLGLPENHIVFPVPIDQCIDG
EC50 [1]: 1.2 nM

B4: fusion protein of SEQ ID NO: 67 (designed binder)
chain: QDSTSDLIPAPPLSKVPLQQNFQDNQFHGKWYVVGLAGNKILRIDKQPAKMFATIYELKEDKSYDVTSVRFEARSCSYTIKTFVPGSQPGEFTAGNIKSAPGQTSTLVRVVSTNYNQHAMVFFKHVSQNRETFVITLYGRTKELTSELKENFIRFSKSLGLPENHIVFPVPIDQCIDGGGGGSGGGGSGGGGSQDSTSDLIPAPPLSKVPLQQNFQDNQFHGKWYVVGWAGNIKLREDKDPFKMSATIYELKEDKSYDVTEVVFEQKKCHYIIKTFVPGSQPGEFTLGDIKSPPGETSSLVRVVSTNYNQHAMVFFKKVFQNREFFWITLYGRTKELTSELKENFIRFSKSLGLPENHIVFPVPIDQCIDG
EC50 [1]: 1 nM

B5: fusion protein of SEQ ID NO: 69 (designed binder)
chain: QDSTSDLIPAPPLSKVPLQQNFQDNQFQGKWYVVGLAGNAILREDKQPAKMFATIYELKEDKSYDVTSVRFEAKSCSYTSKTFVPGSQPGEFTAGNIKSAPGQTSTLVRVVSTNYNQHAMVFFKHVSQNRETFVITLYGRTKELTSELKENFIRFSKSLGLPENHIVFPVPIDQCIDGGGGGSGGGGSGGGGSQDSTSDLIPAPPLSKVPLQQNFQDNQFQGKWYVVGLAGNYRLREDKDPSKMGATIYELKEDKSYDVTQVQFDDKKCLYVIETFVPGSQPGEFTLGAIKSYPGLTSQLVRVVSTNYNQHAMVFVKKVWPNLEYFQIVLYGRTKELTSELKENFIRFSKSLGLPENHIVFPVPIDQCIDG
notes: not shown: C-terminal His-tag
EC50 [2]: 0.65 nM

B6: fusion protein of SEQ ID NO: 72 (designed binder)
chain: B5 chain with Q47Y, A73N, S77V, S80I, A94T, T132F
notes: not shown: C-terminal His-tag
EC50 [2]: 0.68 nM

B7: fusion protein of SEQ ID NO: 75 (designed binder)
chain: B5 chain with S77K, S80I, N96Y, S127T, T132I
notes: not shown: C-terminal His-tag
EC50 [2]: 0.7 nM

B8: fusion protein of SEQ ID NO: 70 (designed binder)
chain: QDSTSDLIPAPPLSKVPLQQNFQDNQFQGKWYVVGWAGNVKLREDKQPQKMSATIYELKEDKSYDVTEVVFEQKKCHYIIKTFVPGSQPGEFTAGDIKSPPGYTSSLVRVVSTNYNQHAMVFFKKVSQNREFFWITLYGRTKELTSELKENFIRFSKSLGLPENHIVFPVPIDQCIDGGGGGSGGGGSGGGGSQDSTSDLIPAPPLSKVPLQQNFQDNQFQGKWYVVGLAGNAILREDKQPAKMFATIYELKEDKSYDVTSVRFEAKSCKYTIKTFVPGSQPGEFTAGYIKSAPGQTSTLVRVVSTNYNQHAMVFFKHVTQNREIFVITLYGRTKELTSELKENFIRFSKSLGLPENHIVFPVPIDQCIDG
notes: not shown: C-terminal His-tag
EC50 [2]: 0.72 nM

B9: fusion protein of SEQ ID NO: 63 (designed binder)
chain: QDSTSDLIPAPPLSKVPLQQNFQDNQFQGKWYVVGRAGNNQLREDKSPPKMWATIYELKEDKSYDVTHVHFSTKKCRYIIDTFVPGSQPGEFTAGAIKSGPGLTSPLVRVVSTNYNQHAMVFFKWVTQNREWFTITLYGRTKELTSELKENFIRFSKSLGLPENHIVFPVPIDQCIDGGGGGSGGGGSGGGGSQDSTSDLIPAPPLSKVPLQQNFQDNQFQGKWYVVGLAGNAILREDKQPAKMFATIYELKEDKSYDVTSVRFEAKSCKYTIKTFVPGSQPGEFTAGYIKSAPGQTSTLVRVVSTNYNQHAMVFFKHVTQNREIFVITLYGRTKELTSELKENFIRFSKSLGLPENHIVFPVPIDQCIDG
notes: not shown: C-terminal His-tag
EC50 [2]: 0.58 nM
